Data reported in patent US20120142103A1, “METHOD FOR INDUCING DIFFERENTIATION INTO EPITHELIAL PROGENITOR CELL/STEM CELL POPULATION AND CORNEAL EPITHELIAL CELL POPULATION FROM INDUCED PLURIPOTENT STEM CELLS” (priority 2010, published 2012).

Test system: mouse iPS cells
Experiment: Modified KCM method: differentiation of mouse iPS cells on collagen into epithelial progenitor/stem cells (immunostaining, flow cytometry of keratin 14-positive cells)
Assay type: cell-based
Method: The iPS cells on the SNL feeders were collected by treatment with 0.25% trypsin/EDTA and further pipetted to prepare an iPS cell suspension (single cell suspension). The obtained cell suspension was incubated on a gelatin-coated culture dish for approximately 1 to 2 hours. The supernatant was collected to thereby allow only the feeder cells to adhere to the dish and collect only the iPS cells. The number of the obtained iPS cells was counted. The iPS cells were inoculated at a density of 0.5 to 10×10^3 cells/cm^2 onto a type IV collagen-coated culture dish as described below and cultured at 37° C. for 7 to 28 days in a 5% CO2 atmosphere using a KCM medium shown below. 0.5 nM BMP4, (R&D System) was further added to the KCM medium, and the cells were cultured in the same way as above.
The cells after differentiation induction were examined for the expressions of a basal epithelial cell marker keratin 14, an epithelial progenitor cell/stem cell marker p63, and a corneal epithelial differentiation marker keratin 12 by an immunostaining method. Moreover, keratin 14-positive cells were analyzed by flow cytometry. The immunostaining method and the flow cytometry analysis will be shown in detail below.
After fixation in cold methanol (−30° C./20 min), 5% NST was added to the cells, which were then left at room temperature for 30 minutes for blocking. […]

B1: BMP4: Bone Morphogenetic Protein 4, one of bone morphogenetic factors, belongs to the transforming growth factor-β (TGF-β) superfamily (protein, UniProt P12644 293-408, looked up)
Bone morphogenetic protein 4: SPKHHSQRARKKNKNCRRHSLYVDFSDVGWNDWIVAPPGYQAFYCHGDCPFPLADHLNSTNHAIVQTLVNSVNSSIPKACCVPTELSAISMLYLDEYDKVVLKNYQEMVVEGCGCR
- induction efficiency of differentiation (keratin 14-positive cells, flow cytometry) (0.5 nM BMP4 added to KCM medium, day 28, 2.9% without BMP4): 6.0%
- epithelial induction efficiency (keratin 14-positive and p63-positive cells, immunostaining) (BMP4 added to KCM medium, day 28): significantly increased epithelial induction efficiency
